Experimental findings from article doi:10.1101/2020.03.05.978833 are described below.

The test system of the data set is FasR wild-type (His6, EMSA) (Mycobacterium tuberculosis H37Rv). Nature of the data set: EMSA.

One may read the Kd as the concentration at which binding is half-saturated. PfasMT promoter fragment (398 bp) registered a Kd of 83 nM.
